The values below are quoted from earlier work in paper PMC7687576 (In Vitro Cellular & Developmental Biology. Animal, 2020).

The test system of series [1] is EpiIntestinal tissues. The conditions noted are these: IL-6 5–20 ng/mL for 72 h; ref Simon et al. [2019].
Series [2] concerns CYP3A4. The conditions noted are these: EpiIntestinal tissues; ref Cui et al. [2020].
Series [3] deals with CYP3A4. The conditions noted are these: Caco-2 cultures; ref Cui et al. [2020].

With IL-6: pro-inflammatory cytokine IL-6, in series [1], the “decrease in CYP450 activity level” value is reported as 20–75% and the “reduction of CYP450 mRNA expression (CYP2C19, CYP2C9, CYP3A4)” value is 40–50%.
In the case of `Cc1ncc2n1-c1ccc(Cl)cc1C(c1ccccc1F)=NC2` [Midazolam], in series [2], the “amount of 1-hydroxymidazolam (CYP3A4-selective metabolite) detected” value is “substantial amount”. Moreover, in series [3], the “amount of 1-hydroxymidazolam metabolite detected” value is recorded as “negligible amount”.
